Source: PMC10281526, “Polydom/SVEP1 binds to Tie1 and promotes migration of lymphatic endothelial cells” (The Journal of Cell Biology, 2023)
One block for each molecule: values may come before it.

Legend:
[1] = target: recombinant Tie1 extracellular domain, Fc fusion protein (UniProt P35590)
[2] = target: T1, recombinant full-length mouse Polydom (mouse, UniProt A2AVA0 18-3567); assay: ELISA; reverse solid-phase binding assay, titration: full-length Polydom coated (10 nM by the legend), serially diluted Tie1-Fc or Tie2-Fc in solution, detected with HRP anti-human IgG against the Fc tag; apparent dissociation constant; details: both partners purified
T1 construct: Polydom (SVEP1), mouse, full length; expression vector as in Sato-Nishiuchi et al., 2012; The construct is described in Sato-Nishiuchi et al., 2012; also called SVEP1; full-length Polydom

Tie2 = target: T2, Tie2 (Homo sapiens (Human), UniProt Q02763); assay: solid-phase ELISA, Tie-Fc dimers on coated SVEP1
T2 chain: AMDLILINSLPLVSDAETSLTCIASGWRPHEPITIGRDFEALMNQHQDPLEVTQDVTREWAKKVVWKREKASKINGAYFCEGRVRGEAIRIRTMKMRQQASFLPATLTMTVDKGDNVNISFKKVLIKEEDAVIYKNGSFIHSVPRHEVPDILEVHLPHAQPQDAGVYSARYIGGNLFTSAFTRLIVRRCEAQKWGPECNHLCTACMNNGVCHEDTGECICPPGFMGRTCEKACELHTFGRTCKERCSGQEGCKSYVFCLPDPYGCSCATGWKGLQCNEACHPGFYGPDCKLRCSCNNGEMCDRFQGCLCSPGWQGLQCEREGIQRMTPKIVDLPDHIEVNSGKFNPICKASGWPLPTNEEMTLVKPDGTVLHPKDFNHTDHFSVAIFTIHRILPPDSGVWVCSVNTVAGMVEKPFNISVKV

T1 sequence (A2AVA0 18-3567): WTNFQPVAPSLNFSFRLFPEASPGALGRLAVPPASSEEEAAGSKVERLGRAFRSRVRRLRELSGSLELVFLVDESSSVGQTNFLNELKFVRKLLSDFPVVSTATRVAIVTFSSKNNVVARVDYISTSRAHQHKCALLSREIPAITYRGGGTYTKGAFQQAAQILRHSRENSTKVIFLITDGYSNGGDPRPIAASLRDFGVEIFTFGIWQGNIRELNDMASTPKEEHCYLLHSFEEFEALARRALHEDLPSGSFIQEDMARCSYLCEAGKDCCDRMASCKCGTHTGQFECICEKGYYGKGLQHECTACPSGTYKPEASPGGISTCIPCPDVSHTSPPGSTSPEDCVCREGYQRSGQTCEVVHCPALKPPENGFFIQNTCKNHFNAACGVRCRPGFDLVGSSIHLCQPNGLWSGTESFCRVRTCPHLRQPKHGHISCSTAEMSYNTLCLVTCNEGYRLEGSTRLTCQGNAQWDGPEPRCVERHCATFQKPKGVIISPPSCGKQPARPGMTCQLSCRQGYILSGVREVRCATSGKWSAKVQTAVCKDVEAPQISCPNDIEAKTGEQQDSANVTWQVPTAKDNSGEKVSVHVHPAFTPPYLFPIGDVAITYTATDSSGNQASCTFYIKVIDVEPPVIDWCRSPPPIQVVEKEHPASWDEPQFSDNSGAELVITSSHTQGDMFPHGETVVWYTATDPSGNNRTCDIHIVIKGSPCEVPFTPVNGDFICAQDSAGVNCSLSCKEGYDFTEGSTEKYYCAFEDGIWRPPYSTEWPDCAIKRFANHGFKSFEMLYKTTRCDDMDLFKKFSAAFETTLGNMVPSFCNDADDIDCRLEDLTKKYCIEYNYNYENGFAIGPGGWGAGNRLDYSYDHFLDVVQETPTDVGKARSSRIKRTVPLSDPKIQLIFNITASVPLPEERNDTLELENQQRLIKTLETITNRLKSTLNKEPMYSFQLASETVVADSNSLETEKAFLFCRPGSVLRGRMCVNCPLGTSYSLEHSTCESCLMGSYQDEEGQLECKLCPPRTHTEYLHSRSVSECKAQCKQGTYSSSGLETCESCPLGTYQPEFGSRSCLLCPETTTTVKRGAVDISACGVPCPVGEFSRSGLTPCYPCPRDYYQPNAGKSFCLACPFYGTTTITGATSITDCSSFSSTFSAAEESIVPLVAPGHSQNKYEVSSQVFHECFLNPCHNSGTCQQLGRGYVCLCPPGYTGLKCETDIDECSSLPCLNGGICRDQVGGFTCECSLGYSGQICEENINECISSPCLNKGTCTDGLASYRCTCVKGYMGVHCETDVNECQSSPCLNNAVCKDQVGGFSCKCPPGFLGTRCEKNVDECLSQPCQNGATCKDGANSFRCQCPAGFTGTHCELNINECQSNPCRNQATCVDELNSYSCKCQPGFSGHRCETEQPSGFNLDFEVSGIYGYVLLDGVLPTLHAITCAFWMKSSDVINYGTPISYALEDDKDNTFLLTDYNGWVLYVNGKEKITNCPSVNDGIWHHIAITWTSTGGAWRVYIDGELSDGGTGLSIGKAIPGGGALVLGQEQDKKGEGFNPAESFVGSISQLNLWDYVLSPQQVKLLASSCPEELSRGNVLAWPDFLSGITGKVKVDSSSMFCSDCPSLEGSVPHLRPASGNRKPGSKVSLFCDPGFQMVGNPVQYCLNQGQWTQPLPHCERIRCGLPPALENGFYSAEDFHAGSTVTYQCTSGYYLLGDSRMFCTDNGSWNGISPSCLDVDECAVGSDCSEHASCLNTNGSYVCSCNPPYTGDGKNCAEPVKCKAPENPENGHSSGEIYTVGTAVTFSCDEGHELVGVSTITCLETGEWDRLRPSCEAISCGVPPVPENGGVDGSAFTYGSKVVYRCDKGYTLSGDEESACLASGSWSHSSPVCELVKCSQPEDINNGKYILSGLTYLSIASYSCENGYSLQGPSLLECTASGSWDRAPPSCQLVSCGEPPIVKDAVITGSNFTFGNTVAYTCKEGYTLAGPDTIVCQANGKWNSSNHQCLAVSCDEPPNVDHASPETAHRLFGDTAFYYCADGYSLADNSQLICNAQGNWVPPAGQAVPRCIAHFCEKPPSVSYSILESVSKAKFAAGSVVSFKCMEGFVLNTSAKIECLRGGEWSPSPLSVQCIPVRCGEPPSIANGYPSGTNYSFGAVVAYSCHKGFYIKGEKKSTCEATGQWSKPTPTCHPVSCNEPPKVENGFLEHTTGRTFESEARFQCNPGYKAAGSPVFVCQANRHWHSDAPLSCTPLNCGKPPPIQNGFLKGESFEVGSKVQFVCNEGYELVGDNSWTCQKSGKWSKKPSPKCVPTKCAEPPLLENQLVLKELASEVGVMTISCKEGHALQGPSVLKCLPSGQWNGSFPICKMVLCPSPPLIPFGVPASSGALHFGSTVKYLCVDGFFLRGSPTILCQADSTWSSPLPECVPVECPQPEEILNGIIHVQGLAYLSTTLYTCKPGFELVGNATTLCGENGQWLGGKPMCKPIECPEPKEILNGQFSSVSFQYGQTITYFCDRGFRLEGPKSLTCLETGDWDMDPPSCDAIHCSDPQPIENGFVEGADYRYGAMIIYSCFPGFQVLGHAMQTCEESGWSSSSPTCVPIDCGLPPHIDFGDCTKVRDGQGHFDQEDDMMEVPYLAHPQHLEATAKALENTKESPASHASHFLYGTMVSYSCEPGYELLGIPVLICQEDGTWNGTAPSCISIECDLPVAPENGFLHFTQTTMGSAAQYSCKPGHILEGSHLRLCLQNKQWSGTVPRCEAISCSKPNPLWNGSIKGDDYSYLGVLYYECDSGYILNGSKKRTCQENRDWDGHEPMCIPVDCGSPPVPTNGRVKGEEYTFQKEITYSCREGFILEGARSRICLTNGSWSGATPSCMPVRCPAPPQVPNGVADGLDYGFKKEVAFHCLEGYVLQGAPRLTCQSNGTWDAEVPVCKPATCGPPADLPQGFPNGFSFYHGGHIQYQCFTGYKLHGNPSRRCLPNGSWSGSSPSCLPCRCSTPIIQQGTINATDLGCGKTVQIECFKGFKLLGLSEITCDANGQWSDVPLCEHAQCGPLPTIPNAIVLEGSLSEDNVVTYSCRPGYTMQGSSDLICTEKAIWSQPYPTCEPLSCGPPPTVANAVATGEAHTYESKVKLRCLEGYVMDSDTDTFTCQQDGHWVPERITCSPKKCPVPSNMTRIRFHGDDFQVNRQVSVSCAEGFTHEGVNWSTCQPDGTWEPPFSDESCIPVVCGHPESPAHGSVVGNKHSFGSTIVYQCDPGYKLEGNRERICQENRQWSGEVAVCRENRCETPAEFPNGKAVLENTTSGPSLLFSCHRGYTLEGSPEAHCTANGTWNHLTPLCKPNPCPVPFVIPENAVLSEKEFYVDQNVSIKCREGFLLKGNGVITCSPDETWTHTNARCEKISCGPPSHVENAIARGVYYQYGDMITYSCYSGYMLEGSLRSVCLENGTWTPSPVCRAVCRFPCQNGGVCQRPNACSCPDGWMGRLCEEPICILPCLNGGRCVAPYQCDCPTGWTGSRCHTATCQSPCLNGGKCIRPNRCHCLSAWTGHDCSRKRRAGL

Transwell migration of human dermal LECs toward Polydom/E2567A (1 μg/ml) in the lower chamber, reduction compared with control Polydom [1]: 80%
Molecule: full-length Polydom E2567A mutant, A2AVA0 18-3567

Kd [2]: 43 ± 4 nM
B1: recombinant Tie1 extracellular domain, Fc fusion protein (Fc fusion, UniProt P35590 22-759, looked up)
chain: AVDLTLLANLRLTDPQRFFLTCVSGEAGAGRGSDAWGPPLLLEKDDRIVRTPPGPPLRLARNGSHQVTLRGFSKPSDLVGVFSCVGGAGARRTRVIYVHNSPGAHLLPDKVTHTVNKGDTAVLSARVHKEKQTDVIWKSNGSYFYTLDWHEAQDGRFLLQLPNVQPPSSGIYSATYLEASPLGSAFFRLIVRGCGAGRWGPGCTKECPGCLHGGVCHDHDGECVCPPGFTGTRCEQACREGRFGQSCQEQCPGISGCRGLTFCLPDPYGCSCGSGWRGSQCQEACAPGHFGADCRLQCQCQNGGTCDRFSGCVCPSGWHGVHCEKSDRIPQILNMASELEFNLETMPRINCAAAGNPFPVRGSIELRKPDGTVLLSTKAIVEPEKTTAEFEVPRLVLADSGFWECRVSTSGGQDSRRFKVNVKVPPVPLAAPRLLTKQSRQLVVSPLVSFSGDGPISTVRLHYRPQDSTMDWSTIVVDPSENVTLMNLRPKTGYSVRVQLSRPGEGGEGAWGPPTLMTTDCPEPLLQPWLEGWHVEGTDRLRVSWSLPLVPGPLVGDGFLLRLWDGTRGQERRENVSSPQARTALLTGLTPGTHYQLDVQLYHCTLLGPASPPAHVLLPPSGPPAPRHLHAQALSDSEIQLTWKHPEALPGPISKYVVEVQVAGGAGDPLWIDVDRPEETSTIIRGLNASTRYLFRMRASIQGLGDWSNTVEESTLGNGLQAEGPVQESRAAEEGLDQ
notes: Tie1, extracellular domain, expressed as Fc fusion protein; The Fc tag was detected with an anti-human IgG antibody; also called Tie1 with an Fc tag; source: bought: R&D Systems

Kd (Tie2): > 500 nM
B2: SVEP1 (protein)
chain: DAIHCSDPQPIENGFVEGADYRYGAMIIYSCFPGFQVLGHAMQTCEESGWSSSSPTCVPID
